Laboratory results from US20050064507.

Legend:
[1] = biological target: T1, AKAP12 peptide AGWRKKTSFRKPKED (SEQ ID NO:99) (not fully specified)
T1 chain: AGWRKKTSFRKPKED

[2] = biological target: T2, ARHGAP4 peptide AGPLRKSSLKKGGRL (SEQ ID NO:98) (not fully specified)
T2 chain: AGPLRKSSLKKGGRL

[3] = biological target: T3, CHRM1 peptide RKIPKRPGSVHRTPSRQ (SEQ ID NO:83) (not fully specified)
T3 chain: RKIPKRPGSVHRTPSRQ

[4] = biological target: T4, CREB1 peptide EILSRRPSYRKILND (SEQ ID NO:106) (not fully specified)
T4 chain: EILSRRPSYRKILND

[5] = biological target: T5, DGKZ peptide KKKKRASFKRKSSKKG (SEQ ID NO:77) (not fully specified)
T5 chain: KKKKRASFKRKSSKKG

[6] = biological target: T6, ERN1 peptide ISDFGLAKKLAVGRHSFSRR (SEQ ID NO:145) (not fully specified)
T6 chain: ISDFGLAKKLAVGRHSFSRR

[7] = biological target: T7, ERN1 peptide KLAVGRHSFSRRSGV (SEQ ID NO:94) (not fully specified)
T7 chain: KLAVGRHSFSRRSGV

[8] = biological target: T8, FLJ20574 peptide GENVLKKSMKSRVKG (SEQ ID NO:113) (not fully specified)
T8 chain: GENVLKKSMKSRVKG

[9] = biological target: T9, LIMK2 peptide KATTKKRTLRKNDRK (SEQ ID NO:108) (not fully specified)
T9 chain: KATTKKRTLRKNDRK

[10] = biological target: T10, MARCKS peptide KKKKKRFSFKKSFKL (SEQ ID NO:80) (not fully specified)
T10 chain: KKKKKRFSFKKSFKL

[11] = biological target: T11, MARCKS peptide KKRFSFKKSFKLSGFSFKKN (SEQ ID NO:119) (not fully specified)
T11 chain: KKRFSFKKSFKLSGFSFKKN

[12] = biological target: T12, MCM2 peptide VQRHRSMRKTFARYLSFRRD (SEQ ID NO:129) (not fully specified)
T12 chain: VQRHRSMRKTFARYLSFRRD

[13] = biological target: T13, MLK3 peptide QQVDRERPHVRRRRGTFKRS (SEQ ID NO:128) (not fully specified)
T13 chain: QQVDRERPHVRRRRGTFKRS

[14] = biological target: T14, MacMARCKS peptide KKKFSFKKPFKLSGLSFKRN (SEQ ID NO:162) (not fully specified)
T14 chain: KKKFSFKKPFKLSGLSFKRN

[15] = biological target: T15, NCF1 peptide GAPPRRSSIRNAH (SEQ ID NO:101) (not fully specified)
T15 chain: GAPPRRSSIRNAH

[16] = biological target: T16, NEURL peptide ALRRPSLRREADD (SEQ ID NO:105) (not fully specified)
T16 chain: ALRRPSLRREADD

[17] = biological target: T17, NF1 peptide SQVQKQRSAGSFKRNSIKKI (SEQ ID NO:127) (not fully specified)
T17 chain: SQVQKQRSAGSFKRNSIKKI

[18] = biological target: T18, NR4A3 peptide KEVVRTDSLKGRRGR (SEQ ID NO:109) (not fully specified)
T18 chain: KEVVRTDSLKGRRGR

[19] = biological target: T19, PARIS1 peptide EYLERRASRRRAV (SEQ ID NO:138) (not fully specified)
T19 chain: EYLERRASRRRAV

[20] = biological target: T20, PARIS1 peptide EYLERRASRRRAV (SEQ ID NO:89) (not fully specified)
T20 chain: EYLERRASRRRAV

[21] = biological target: T21, PARIS1 peptide RELEQLKAEYLERRASRRRA (SEQ ID NO:148) (not fully specified)
T21 chain: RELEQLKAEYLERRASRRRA

[22] = biological target: T22, PLD1 peptide KYKAFIRIPIPTRRHTFRRQ (SEQ ID NO:161) (not fully specified)
T22 chain: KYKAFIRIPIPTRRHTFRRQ

[23] = biological target: T23, PLEC1 peptide KRERKTSSKSSVRKRR (SEQ ID NO:81) (not fully specified)
T23 chain: KRERKTSSKSSVRKRR

[24] = biological target: T24, PLEK peptide KFARKSTRRSIRLPE (SEQ ID NO:78) (not fully specified)
T24 chain: KFARKSTRRSIRLPE

[25] = biological target: T25, PSCD2 peptide AARKKRISVKKKQEQ (SEQ ID NO:93) (not fully specified)
T25 chain: AARKKRISVKKKQEQ

[26] = biological target: T26, Urotensin-2 receptor peptide LYARLARAYRRSQRASFKRA (SEQ ID NO:159) (not fully specified)
T26 chain: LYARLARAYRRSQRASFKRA

[27] = biological target: T27, fit1 peptide VQMTWSYPDEKNKRASVRRR (SEQ ID NO:158) (not fully specified)
T27 chain: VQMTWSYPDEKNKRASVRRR

[28] = biological target: T28, gravin peptide KKFFTQGWAGWRKKTSFRKP (SEQ ID NO:154) (not fully specified)
T28 chain: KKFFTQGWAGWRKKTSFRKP

[29] = biological target: T29, p164-RhoGEF peptide PRLIRRGSKKRPAR (SEQ ID NO:124) (not fully specified)
T29 chain: PRLIRRGSKKRPAR

[30] = biological target: T30, phospholemman peptide EEGTFRSSIRRLSTRRR (SEQ ID NO:116) (not fully specified)
T30 chain: EEGTFRSSIRRLSTRRR

[31] = biological target: T31, plectin peptide PLKEKKRERKTSSKSSVRKR (SEQ ID NO:125) (not fully specified)
T31 chain: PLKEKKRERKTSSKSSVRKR

B1: PKC-theta (protein)
chain: MSPFLRIGLSNFDCGSCQSCQGEAVNPYCAVLVKEYVESENGQMYIQKKPTMYPPWDSTFDAHINKGRVMQIIVKGKNVDLISETTVELYSLAERCRKNNGKTEIWLELKPQGRMLMNARYFLEMSDTKDMNEFETEGFFALHQRRGAIKQAKVHHVKCHEFTATFFPQPTFCSVCHEFVWGLNKQGYQCRQCNAAIHKKCIDKVIAKCTGSAINSRETMFHKERFKIDMPHRFKVYNYKSPTFCEHCGTLLWGLARQGLKCDACGMNVHHRCQTKVANLCGINQKLMAEALAMIESTQQARCLRDTEQIFREGPVEIGLPCSIKNEARPPCLPTPGKREPQGISWESPLDEVDKMCHLPEPELNKERPSLQIKLKIEDFILHKMLGKGSFGKVFLAEFKKTNQFFAIKALKKDVVLMDDDVECTMVEKRVLSLAWEHPFLTHMFCTFQTKENLFFVMEYLNGGDLMYHIQSCHKFDLSRATFYAAEIILGLQFLHSKGIVYRDLKLDNILLDKDGHIKIADFGMCKENMLGDAKTNTFCGTPDYIAPEILLGQKYNHSVDWWSFGVLLYEMLIGQSPFHGQDEEELFHSIRMDNPFYPRWLEKEAKDLLVKLFVREPEKRLGVRGDIRQHPLFREINWEELERKEIDPPFRPKVKSPFDCSNFDKEFLNEKPRLSFADRALINSMDQNMFRNFSFMNPGMERLIS
[1]
  in vitro phosphorylation (% of best substrate): 25
[2]
  in vitro phosphorylation (% of best substrate): 22
[3]
  in vitro phosphorylation (% of best substrate): 92
[4]
  in vitro phosphorylation (% of best substrate): 19
[5]
  in vitro phosphorylation (% of best substrate): 74
[6]
  in vitro phosphorylation, 1 uM peptide (% of best substrate): 27
  in vitro phosphorylation, 10 uM peptide (% of best substrate): 25
[7]
  in vitro phosphorylation (% of best substrate): 86
[8]
  in vitro phosphorylation (% of best substrate): 10
[9]
  in vitro phosphorylation (% of best substrate): 32
[10]
  in vitro phosphorylation (% of best substrate): 63
[11]
  in vitro phosphorylation, 1 uM peptide (% of best substrate): 69
  in vitro phosphorylation, 10 uM peptide (% of best substrate): 28
[12]
  in vitro phosphorylation, 1 uM peptide (% of best substrate): 48
  in vitro phosphorylation, 10 uM peptide (% of best substrate): 25
[13]
  in vitro phosphorylation, 1 uM peptide (% of best substrate): 41
  in vitro phosphorylation, 10 uM peptide (% of best substrate): 59
[14]
  in vitro phosphorylation, 1 uM peptide (% of best substrate): 14
  in vitro phosphorylation, 10 uM peptide (% of best substrate): 13
[15]
  in vitro phosphorylation (% of best substrate): 29
[16]
  in vitro phosphorylation (% of best substrate): 21
[17]
  in vitro phosphorylation, 1 uM peptide (% of best substrate): 45
  in vitro phosphorylation, 10 uM peptide (% of best substrate): 58
[18]
  in vitro phosphorylation (% of best substrate): 9
[19]
  in vitro phosphorylation, 1 uM peptide (% of best substrate): 34
  in vitro phosphorylation, 10 uM peptide (% of best substrate): 39
[20]
  in vitro phosphorylation (% of best substrate): 60
[21]
  in vitro phosphorylation, 1 uM peptide (% of best substrate): 34
  in vitro phosphorylation, 10 uM peptide (% of best substrate): 34
[22]
  in vitro phosphorylation, 1 uM peptide (% of best substrate): 19
  in vitro phosphorylation, 10 uM peptide (% of best substrate): 23
[23]
  in vitro phosphorylation (% of best substrate): 46
[24]
  in vitro phosphorylation (% of best substrate): 47
[25]
  in vitro phosphorylation (% of best substrate): 40
[26]
  in vitro phosphorylation, 1 uM peptide (% of best substrate): 21
  in vitro phosphorylation, 10 uM peptide (% of best substrate): 17
[27]
  in vitro phosphorylation, 1 uM peptide (% of best substrate): 19
  in vitro phosphorylation, 10 uM peptide (% of best substrate): 23
[28]
  in vitro phosphorylation, 1 uM peptide (% of best substrate): 34
  in vitro phosphorylation, 10 uM peptide (% of best substrate): 21
[29]
  in vitro phosphorylation, 1 uM peptide (% of best substrate): 53
  in vitro phosphorylation, 10 uM peptide (% of best substrate): 57
[30]
  in vitro phosphorylation, 1 uM peptide (% of best substrate): 83
  in vitro phosphorylation, 10 uM peptide (% of best substrate): 78
[31]
  in vitro phosphorylation, 1 uM peptide (% of best substrate): 39
  in vitro phosphorylation, 10 uM peptide (% of best substrate): 100

B2: PKC-epsilon (protein)
chain: MVVFNGLLKIKICEAVSLKPTAWSLRHAVGPRPQTFLLDPYIALNVDDSRIGQTATKQKTNSPAWHDEFVTDVCNGRKIELAVFHDAPIGYDDFVANCTIQFEELLQNGSRHFEDWIDLEPEGRVYVIIDLSGSSGEAPKDNEERVFRERMRPRKRQGAVRRRVHQVNGHKFMATYLRQPTYCSHCRDFIWGVIGKQGYQCQVCTCVVHKRCHELIITKCAGLKKQETPDQVGSQRFSVNMPHKFGIHNYKVPTFCDHCGSLLWGLLRQGLQCKVCKMNVHRRCETNVAPNCGVDARGIAKVLADLGVTPDKITNSGQRRKKLIAGAESPQPASGSSPSEEDRSKSAPTSPCDQEIKELENNIRKALSFDNRGEEHRAASSPDGQLMSPGENGEVRQGQAKRLGLDEFNFIKVLGKGSFGKVMLAELKGKDEVYAVKVLKKDVILQDDDVDCTMTEKRILALARKHPYLTQLYCCFQTKDRLFFVMEYVNGGDLMFQIQRSRKFDEPRSRFYAAEVTSALMFLHQHGVIYRDLKLDNILLDAEGHCKLADFGMCKEGILNGVTTTTFCGTPDYIAPEILQELEYGPSVDWWALGVLMYEMMAGQPPFEADNEDDLFESILHDDVLYPVWLSKEAVSILKAFMTKNPHKRLGCVASQNGEDAIKQHPFFKEIDWVLLEQKKIKPPFKPRIKTKRDVNNFDQDFTREEPVLTLVDEAIVKQINQEEFKGFSYFGEDLMP
[1]
  in vitro phosphorylation (% of best substrate): 27
[2]
  in vitro phosphorylation (% of best substrate): 34
[3]
  in vitro phosphorylation (% of best substrate): 47
[4]
  in vitro phosphorylation (% of best substrate): 31
[5]
  in vitro phosphorylation (% of best substrate): 71
[6]
  in vitro phosphorylation, 1 uM peptide (% of best substrate): 26
[7]
  in vitro phosphorylation (% of best substrate): 13
[8]
  in vitro phosphorylation (% of best substrate): 10
[9]
  in vitro phosphorylation (% of best substrate): 8
[10]
  in vitro phosphorylation (% of best substrate): 71
[11]
  in vitro phosphorylation, 1 uM peptide (% of best substrate): 81
[12]
  in vitro phosphorylation, 1 uM peptide (% of best substrate): 65
[13]
  in vitro phosphorylation, 1 uM peptide (% of best substrate): 32
[14]
  in vitro phosphorylation, 1 uM peptide (% of best substrate): 19
[15]
  in vitro phosphorylation (% of best substrate): 19
[16]
  in vitro phosphorylation (% of best substrate): 29
[17]
  in vitro phosphorylation, 1 uM peptide (% of best substrate): 32
[18]
  in vitro phosphorylation (% of best substrate): 26
[19]
  in vitro phosphorylation, 1 uM peptide (% of best substrate): 27
[20]
  in vitro phosphorylation (% of best substrate): 45
[21]
  in vitro phosphorylation, 1 uM peptide (% of best substrate): 33
[22]
  in vitro phosphorylation, 1 uM peptide (% of best substrate): 21
[23]
  in vitro phosphorylation (% of best substrate): 59
[24]
  in vitro phosphorylation (% of best substrate): 84
[25]
  in vitro phosphorylation (% of best substrate): 40
[26]
  in vitro phosphorylation, 1 uM peptide (% of best substrate): 25
[27]
  in vitro phosphorylation, 1 uM peptide (% of best substrate): 11
[28]
  in vitro phosphorylation, 1 uM peptide (% of best substrate): 29
[29]
  in vitro phosphorylation, 1 uM peptide (% of best substrate): 49
[30]
  in vitro phosphorylation, 1 uM peptide (% of best substrate): 92
[31]
  in vitro phosphorylation, 1 uM peptide (% of best substrate): 48
